These results are taken from publication PMC7450096, “Structural mechanism for replication origin binding and remodeling by a metazoan origin recognition complex and its co-loader Cdc6” (Nature Communications, 2020).

Data set [1] concerns the target DmORC Orc1deltaN;DmCdc6deltaN241 (Drosophila melanogaster;Drosophila …, UniProt O16810;Q24168;Q7K2L1;Q9W102;Q24169;Q9Y1B2;Q9VSM9 …, |del1-241). The data set can be described thus: cryo-EM; ATP, Mg2+; Anisotropy: 1 nM dsDNA, 25 mM HEPES-KOH pH 7.6, 300 mM K-glutamate, 10 mM Mg-acetate, 10% glycerol, 0.1% NP40, 1 mM DTT, 0.1 mg/mL BSA, 0 or 1 mM ATP, 25 C, 40. The conditions noted are these: protein: recombinant;recombinant; tags: tags cleaved;6xHis-MBP cleaved by TEV; copies: 1;1;1;1;1;1;1; blunt.

The target in data set [2] is T1, Drosophila origin recognition complex with N-terminally truncated Orc1 (DmORC^Orc1ΔN) (Drosophila, UniProt O16810 440-924; Q24168 1-618; Q7K2L1 1-721; Q9W102 1-459; Q24169 1-460; Q9Y1B2 …).
T1 construct: Orc1, Drosophila, without the N-terminal 439 amino acid residues (Orc1ΔN); Orc2, Drosophila; only Orc1 is named as truncated in DmORC^Orc1ΔN; Orc3, Drosophila; Orc4, Drosophila; Orc5, Drosophila; Orc6, Drosophila; full-length DmOrc6 was used to reconstitute the binary and ternary complexes; Heterohexamer used for cryo-EM and for the pull-down with Cdc6ΔN; also called truncated DmORC; not shown: …
Description: cryo-EM structure; DmORC^Orc1ΔN (2.5 μM), duplex DNA (3 μM; 60 bp AT-rich, 84 bp AT-rich, 60 bp poly(dA·dT) or 60 bp GC-rich) and DmCdc6ΔN (6.8 μM) assembled at 25 °C in 25 mM HEPES-KOH pH 7.6, 250 mM potassium acetate, 10 mM magnesium acetate, 1 mM DTT, 1 mM ATP; purified by gel filtration. To be noted: both partners purified. (Size exclusion chromatography separates by hydrodynamic size, large species first.)

For data set [3], the target named is T2, Drosophila Orc2, subunit of DmORC^Orc1ΔN (Drosophila, UniProt Q24168 1-618).
T2 construct: Orc2, Drosophila; only Orc1 is named as truncated in DmORC^Orc1ΔN; also called DmOrc2; source: Hi5 insect cells, co-expressed with the other ORC subunits, purified as part of DmORC^Orc1ΔN
T2 sequence: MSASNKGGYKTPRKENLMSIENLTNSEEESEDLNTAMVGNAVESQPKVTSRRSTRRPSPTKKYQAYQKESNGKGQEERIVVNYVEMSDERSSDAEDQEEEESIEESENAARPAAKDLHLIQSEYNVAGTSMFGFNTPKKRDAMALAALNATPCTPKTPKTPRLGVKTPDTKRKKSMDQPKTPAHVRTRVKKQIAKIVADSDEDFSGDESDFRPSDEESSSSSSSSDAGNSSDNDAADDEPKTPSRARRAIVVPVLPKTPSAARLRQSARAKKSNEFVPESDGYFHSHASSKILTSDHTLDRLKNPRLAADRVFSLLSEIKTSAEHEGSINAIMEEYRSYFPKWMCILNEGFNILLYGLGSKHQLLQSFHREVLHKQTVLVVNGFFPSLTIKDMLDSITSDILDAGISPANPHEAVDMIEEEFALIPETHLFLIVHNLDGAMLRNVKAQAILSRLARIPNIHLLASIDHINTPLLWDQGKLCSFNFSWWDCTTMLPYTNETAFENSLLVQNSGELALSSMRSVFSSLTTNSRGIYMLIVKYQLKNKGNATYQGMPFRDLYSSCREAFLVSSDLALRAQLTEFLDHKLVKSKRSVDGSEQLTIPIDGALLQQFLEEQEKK
The data set is described as above. The conditions noted are these: both partners purified.

The target in data set [4] is T3, Drosophila Orc3, subunit of DmORC^Orc1ΔN (Drosophila, UniProt Q7K2L1 1-721).
T3 construct: Orc3, Drosophila; only Orc1 is named as truncated in DmORC^Orc1ΔN; also called DmOrc3; source: Hi5 insect cells, co-expressed with the other ORC subunits, purified as part of DmORC^Orc1ΔN
T3 sequence: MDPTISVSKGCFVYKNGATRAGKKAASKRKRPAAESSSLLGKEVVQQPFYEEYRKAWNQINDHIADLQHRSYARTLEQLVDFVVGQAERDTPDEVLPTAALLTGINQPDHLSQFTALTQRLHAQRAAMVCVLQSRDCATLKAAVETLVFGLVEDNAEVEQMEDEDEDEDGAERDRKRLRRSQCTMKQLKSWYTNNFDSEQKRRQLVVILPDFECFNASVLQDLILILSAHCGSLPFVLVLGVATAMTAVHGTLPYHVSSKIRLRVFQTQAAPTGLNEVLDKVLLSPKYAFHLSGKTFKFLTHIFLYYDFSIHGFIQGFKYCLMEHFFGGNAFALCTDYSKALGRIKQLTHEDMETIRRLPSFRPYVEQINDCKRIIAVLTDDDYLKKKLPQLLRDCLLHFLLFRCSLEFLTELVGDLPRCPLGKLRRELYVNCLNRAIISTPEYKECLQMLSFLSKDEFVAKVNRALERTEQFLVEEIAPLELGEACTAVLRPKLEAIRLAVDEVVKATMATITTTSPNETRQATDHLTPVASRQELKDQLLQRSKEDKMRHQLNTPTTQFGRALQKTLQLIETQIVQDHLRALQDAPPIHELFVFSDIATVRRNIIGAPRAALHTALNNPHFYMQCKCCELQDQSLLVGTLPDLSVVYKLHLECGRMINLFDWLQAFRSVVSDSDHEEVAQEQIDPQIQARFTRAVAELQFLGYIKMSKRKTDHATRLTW
Described as above. To be noted: both partners purified.

The target of data set [5] is T4, Drosophila Orc1 lacking the N-terminal 439 residues (Orc1ΔN), subunit of DmORC^Orc1ΔN (Drosophila, UniProt O16810 440-924).
T4 construct: Orc1, Drosophila, without the N-terminal 439 amino acid residues; also called DmOrc1; source: Hi5 insect cells, co-expressed with the other ORC subunits, purified as part of DmORC^Orc1ΔN; not shown: 6xHis, N-terminal, cleaved
T4 sequence (looked up): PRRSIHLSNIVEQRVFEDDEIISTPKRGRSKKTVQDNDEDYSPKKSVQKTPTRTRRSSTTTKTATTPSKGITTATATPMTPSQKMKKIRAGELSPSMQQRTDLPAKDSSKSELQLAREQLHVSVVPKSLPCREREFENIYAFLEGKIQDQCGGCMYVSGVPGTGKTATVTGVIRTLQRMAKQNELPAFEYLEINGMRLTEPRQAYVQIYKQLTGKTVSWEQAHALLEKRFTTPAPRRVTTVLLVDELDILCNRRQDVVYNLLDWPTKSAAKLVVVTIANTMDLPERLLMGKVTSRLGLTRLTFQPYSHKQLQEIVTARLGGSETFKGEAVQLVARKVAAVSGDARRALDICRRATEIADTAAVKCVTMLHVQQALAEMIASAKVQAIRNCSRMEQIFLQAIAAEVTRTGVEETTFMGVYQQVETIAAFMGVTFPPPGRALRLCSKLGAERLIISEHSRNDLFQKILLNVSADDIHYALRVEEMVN
The description is as above. The conditions noted are these: both partners purified.

In data set [6] the target is T1, Drosophila origin recognition complex …. Description: pull-down; MBP-DmCdc6 or 6xHis-MBP-DmCdc6ΔN (200 nM) as bait on amylose beads; DmORC (100 nM) with 60 bp AT-rich dsDNA (100 nM); 25 mM HEPES-KOH pH 7.6, 300 mM potassium glutamate, 10 mM magnesium acetate, 10% glycerol, 1 mM DTT, 0 or 1 mM ATP; 25 °C; SDS-PAGE and silver staining. The conditions noted are these: both partners purified.

Chain of DmORC Orc1deltaN;DmCdc6deltaN241 (chain, as listed by the source |del1-241 | mutant, chain 4 of 3): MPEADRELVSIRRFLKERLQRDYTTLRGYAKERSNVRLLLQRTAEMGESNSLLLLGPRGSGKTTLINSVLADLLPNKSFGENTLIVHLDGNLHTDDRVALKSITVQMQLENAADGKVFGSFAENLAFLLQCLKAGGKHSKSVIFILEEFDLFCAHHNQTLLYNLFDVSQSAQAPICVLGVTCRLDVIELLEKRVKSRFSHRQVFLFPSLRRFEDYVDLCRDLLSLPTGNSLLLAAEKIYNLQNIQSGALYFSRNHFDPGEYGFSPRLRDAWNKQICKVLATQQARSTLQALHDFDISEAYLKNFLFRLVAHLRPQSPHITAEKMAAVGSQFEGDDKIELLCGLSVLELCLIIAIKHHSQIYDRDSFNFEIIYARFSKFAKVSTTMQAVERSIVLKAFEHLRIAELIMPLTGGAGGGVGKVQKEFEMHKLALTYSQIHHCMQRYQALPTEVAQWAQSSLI
Chain of DmORC Orc1deltaN;DmCdc6deltaN241 (Q24169 whole entry, stated change not applied, chain 5 of 3): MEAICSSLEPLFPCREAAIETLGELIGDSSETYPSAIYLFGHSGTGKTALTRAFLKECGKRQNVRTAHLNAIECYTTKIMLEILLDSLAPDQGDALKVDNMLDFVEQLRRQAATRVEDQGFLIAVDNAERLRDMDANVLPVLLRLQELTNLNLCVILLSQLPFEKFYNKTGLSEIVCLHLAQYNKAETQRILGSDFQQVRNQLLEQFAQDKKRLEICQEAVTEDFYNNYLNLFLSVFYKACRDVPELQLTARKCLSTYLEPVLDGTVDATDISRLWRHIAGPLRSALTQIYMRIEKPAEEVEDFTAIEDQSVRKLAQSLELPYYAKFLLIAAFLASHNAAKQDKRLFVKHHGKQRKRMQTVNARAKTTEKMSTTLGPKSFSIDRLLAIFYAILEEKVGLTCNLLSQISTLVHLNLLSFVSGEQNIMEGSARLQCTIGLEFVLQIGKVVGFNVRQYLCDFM
Chain of DmORC Orc1deltaN;DmCdc6deltaN241 (Q9Y1B2 whole entry, stated change not applied, chain 6 of 3): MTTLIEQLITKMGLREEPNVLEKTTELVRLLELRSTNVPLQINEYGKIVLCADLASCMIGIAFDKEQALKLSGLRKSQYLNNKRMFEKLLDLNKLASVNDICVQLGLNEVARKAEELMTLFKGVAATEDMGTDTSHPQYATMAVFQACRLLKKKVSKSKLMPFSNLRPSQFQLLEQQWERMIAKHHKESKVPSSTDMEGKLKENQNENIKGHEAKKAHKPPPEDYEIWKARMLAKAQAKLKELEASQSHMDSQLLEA
T1 sequence (chain, as listed by the source mutant, chain 4 of 3): as the sequence (chain, as listed by the source |del1-241 | mutant, chain 4 of 3) above
T1 sequence (Q24169 whole entry, stated change not applied, chain 5 of 3, the tested form may be a part): as the sequence (Q24169 whole entry, stated change not applied, chain 5 of 3) above
T1 sequence (Q9Y1B2 whole entry, stated change not applied, chain 6 of 3, the tested form may be a part): as the sequence (Q9Y1B2 whole entry, stated change not applied, chain 6 of 3) above

B1: 84 bp AT-rich (dsDNA)
DNA 1: TTTGTGCACTTGCCTGCAGGCCTTTTGAAAAGCAAGCATAAAAGATCTAAACATAAAATCTGTAAAATAACAAGATGTAAAGAT
DNA 2: ATCTTTACATCTTGTTATTTTACAGATTTTATGTTTAGATCTTTTATGCTTGCTTTTCAAAAGGCCTGCAGGCAAGTGCACAAA
As to B1, the binding result in data set [1] was “binds”.

B2: 60 bp GC-rich (70% GC) (dsDNA)
DNA 1: GGGGCTCGACTCCAAGTGCGGGGCACTCGTCTGTGAGGGGGCTCAGTTCGCACTGCGGGG
DNA 2: CCCCGCAGTGCGAACTGAGCCCCCTCACAGACGAGTGCCCCGCACTTGGAGTCGAGCCCC
Turning to B2, in data set [1], the binding result is “binds”.

B3: N-terminally truncated Drosophila Cdc6 (DmCdc6ΔN241), tags removed (domain or fragment, UniProt Q9VSM9 242-662, looked up)
chain: NNLPSPSRNKYQNARRVLNSAETQNLPGRESQLQELREFFSNHLESQTSGSLYVSGQPGTGKTACLSLLLRDPDFSKRLQRVYINCTSIASVGAVYKKLCTELQLKVSGRTERDHLEAIQRHLKTAKRMLLLVLDEIDQLCTSRQEVLYTIFEWPALPGSRILLVGIANSLDLTDRALMRLNARCELKPRLMHFPPYSKQQIVEIFKSRLAEAEVLDVFPPVTLQLLAAKVSAISGDVRRALDIGRRVVEIAEQQKRDGEKEFNMKALQLEGKDAVEAKEKQDTLKPVQVTQVAAVLNKVYGASQNLEEDIEASFPLQQKLMLCTLVLMLRNERNKDISMGRLHEVYRRVCAKRNILALDQAEFTGTVDLVETRGILRIMRKKEPRLHKVLLQWDEEEVHAALSDKQLIASILSDTACLSK
notes: Cdc6, Drosophila, ΔN241, amino acids 242-662; not shown: 6xHis, N-terminal, cleaved; MBP, N-terminal, cleaved
For the molecule B3, the binding result in data set [2], in data set [3], in data set [4] and in data set [5] was “binds” in each case.

B4: 6xHis-MBP-tagged N-terminally truncated Drosophila Cdc6 (6xHis-MBP-DmCdc6ΔN241) (domain or fragment, UniProt Q9VSM9 242-662, looked up)
chain: NNLPSPSRNKYQNARRVLNSAETQNLPGRESQLQELREFFSNHLESQTSGSLYVSGQPGTGKTACLSLLLRDPDFSKRLQRVYINCTSIASVGAVYKKLCTELQLKVSGRTERDHLEAIQRHLKTAKRMLLLVLDEIDQLCTSRQEVLYTIFEWPALPGSRILLVGIANSLDLTDRALMRLNARCELKPRLMHFPPYSKQQIVEIFKSRLAEAEVLDVFPPVTLQLLAAKVSAISGDVRRALDIGRRVVEIAEQQKRDGEKEFNMKALQLEGKDAVEAKEKQDTLKPVQVTQVAAVLNKVYGASQNLEEDIEASFPLQQKLMLCTLVLMLRNERNKDISMGRLHEVYRRVCAKRNILALDQAEFTGTVDLVETRGILRIMRKKEPRLHKVLLQWDEEEVHAALSDKQLIASILSDTACLSK
notes: Cdc6, Drosophila, ΔN241, amino acids 242-662; also called 6xHis-MBP-tagged DmCdc6ΔN241; source: TEV cleavage omitted; not shown: 6xHis, N-terminal, kept; MBP, N-terminal, kept
B4: in data set [6], the binding result is given as “binds”.
